Columns and labels:
[1] = substrate: CC(=O)C1Nc2c(nc(N)[nH]c2=O)NC1(C)C; assay: (§1) Activity of tetrahydrobiopterin free nNOS
[2] = substrate: C[C@H](O)[C@H](O)[C@H]1CNc2nc(N)[nH]c(=O)c2N1; assay: as §1

B1: Nitric oxide synthase 1 (Homo sapiens), P29475 (protein)
chain: MEDHMFGVQQIQPNVISVRLFKRKVGGLGFLVKERVSKPPVIISDLIRGGAAEQSGLIQAGDIILAVNGRPLVDLSYDSALEVLRGIASETHVVLILRGPEGFTTHLETTFTGDGTPKTIRVTQPLGPPTKAVDLSHQPPAGKEQPLAVDGASGPGNGPQHAYDDGQEAGSLPHANGLAPRPPGQDPAKKATRVSLQGRGENNELLKEIEPVLSLLTSGSRGVKGGAPAKAEMKDMGIQVDRDLDGKSHKPLPLGVENDRVFNDLWGKGNVPVVLNNPYSEKEQPPTSGKQSPTKNGSPSKCPRFLKVKNWETEVVLTDTLHLKSTLETGCTEYICMGSIMHPSQHARRPEDVRTKGQLFPLAKEFIDQYYSSIKRFGSKAHMERLEEVNKEIDTTSTYQLKDTELIYGAKHAWRNASRCVGRIQWSKLQVFDARDCTTAHGMFNYICNHVKYATNKGNLRSAITIFPQRTDGKHDFRVWNSQLIRYAGYKQPDGSTLGDPANVQFTEICIQQGWKPPRGRFDVLPLLLQANGNDPELFQIPPELVLEVPIRHPKFEWFKDLGLKWYGLPAVSNMLLEIGGLEFSACPFSGWYMGTEIGVRDYCDNSRYNILEEVAKKMNLDMRKTSSLWKDQALVEINIAVLYSFQSDKVTIVDHHSATESFIKHMENEYRCRGGCPADWVWIVPPMSGSITPVFHQEMLNYRLTPSFEYQPDPWNTHVWKGTNGTPTKRRAIGFKKLAEAVKFSAKLMGQAMAKRVKATILYATETGKSQAYAKTLCEIFKHAFDAKVMSMEEYDIVHLEHETLVLVVTSTFGNGDPPENGEKFGCALMEMRHPNSVQEERKSYKVRFNSVSSYSDSQKSSGDGPDLRDNFESAGPLANVRFSVFGLGSRAYPHFCAFGHAVDTLLEELGGERILKMREGDELCGQEEAFRTWAKKVFKAACDVFCVGDDVNIEKANNSLISNDRSWKRNKFRLTFVAEAPELTQGLSNVHKKRVSAARLLSRQNLQSPKSSRSTIFVRLHTNGSQELQYQPGDHLGVFPGNHEDLVNALIERLEDAPPVNQMVKVELLEERNTALGVISNWTDELRLPPCTIFQAFKYYLDITTPPTPLQLQQFASLATSEKEKQRLLVLSKGLQEYEEWKWGKNPTIVEVLEEFPSIQMPATLLLTQLSLLQPRYYSISSSPDMYPDEVHLTVAIVSYRTRDGEGPIHHGVCSSWLNRIQADELVPCFVRGAPSFHLPRNPQVPCILVGPGTGIAPFRSFWQQRQFDIQHKGMNPCPMVLVFGCRQSKIDHIYREETLQAKNKGVFRELYTAYSREPDKPKKYVQDILQEQLAESVYRALKEQGGHIYVCGDVTMAADVLKAIQRIMTQQGKLSAEDAGVFISRMRDDNRYHEDIFGVTLRTYEVTNRLRSESIAFIEESKKDTDEVFSS
[1]
  kcat: 0.0878 s⁻¹
[2]
  kcat: 0.136 s⁻¹

Reference: ChEMBL document CHEMBL1143118, “6-Acetyl-7,7-dimethyl-5,6,7,8-tetrahydropterin is an activator of nitric oxide synthases” (Bioorg Med Chem Lett, 2008)
